We go through 2 molecules from article PMC4612432 (The journal of physical chemistry. B, 2013).

Assay [1] addresses T1, Wild-type human lysozyme (human) (UniProt P61626).
T1 sequence: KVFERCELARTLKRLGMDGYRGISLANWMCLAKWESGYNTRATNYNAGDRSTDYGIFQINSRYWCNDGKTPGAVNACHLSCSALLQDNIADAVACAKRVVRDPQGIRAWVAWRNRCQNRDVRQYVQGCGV
The experiment in a line: SPR.

The target in assay [2] is T1, Wild-type human lysozyme (human). The experiment in a line: ITC.
The next assay deals with Wild-type human lysozyme (Homo sapiens, UniProt P61626). The experiment in a line: SPR.

Substitutions are numbered along the chain they refer to.

B1: cAb-HuL5G (VHH)
VHH: QVQLQESGGGSVQAGGSLRLSCSASGLSTTVMAWFRQAPGKEREGVAAIYTGDGFPYYADSVKGRFTISQDNAKNTVYLQMNSLKPEDTAMYYCAAKTGAFSYGSLWWMSRAYNHWGQGTEVTVSS
In assay [1], B1 gave a Kd of 0.31 µM, an off-rate (koff) of 0.128 s⁻¹ and an on-rate (kon) of 410000 M⁻¹ s⁻¹. In addition, in assay [2], the Kd was 2.5 µM.

B2: cAb-HuL5 (VHH)
VHH: B1 VHH with S23E, T76R, V77M, K85E, E121Q
Turning to B2, in the assay with Wild-type human lysozyme, the Kd is 0.46 µM, the koff came out at 0.088 ± 0.009 s⁻¹ and the kon stood at 190000 M⁻¹ s⁻¹.
